The values below come from paper PMC2955198 (Cell, 2010).

“And” between values parts separate entries of the source, which are not always exact repeats. Equal values may be shown once.

T1: Dsn1 (subunit of the purified MIND complex) (S. cerevisiae, UniProt P40568 1-576)
T1 sequence (looked up): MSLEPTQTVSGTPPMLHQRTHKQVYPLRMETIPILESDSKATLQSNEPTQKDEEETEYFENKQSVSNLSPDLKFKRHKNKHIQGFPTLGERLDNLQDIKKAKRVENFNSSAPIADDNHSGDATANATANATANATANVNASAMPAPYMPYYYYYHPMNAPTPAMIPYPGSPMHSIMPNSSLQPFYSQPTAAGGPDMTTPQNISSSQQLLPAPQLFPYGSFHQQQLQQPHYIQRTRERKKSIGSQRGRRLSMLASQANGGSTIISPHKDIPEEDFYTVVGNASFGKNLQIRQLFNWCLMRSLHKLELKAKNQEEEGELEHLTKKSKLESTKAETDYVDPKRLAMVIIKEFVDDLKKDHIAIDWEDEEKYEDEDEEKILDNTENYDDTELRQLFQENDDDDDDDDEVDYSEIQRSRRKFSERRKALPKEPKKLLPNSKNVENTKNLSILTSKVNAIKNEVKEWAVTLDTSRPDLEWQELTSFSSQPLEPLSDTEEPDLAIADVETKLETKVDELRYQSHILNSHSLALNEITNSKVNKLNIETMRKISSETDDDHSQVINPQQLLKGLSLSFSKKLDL

B1: S. cerevisiae Csm1 full-length (natural protein, UniProt P25651 1-190, looked up)
chain: MDPLTVYKNSVKQQIDSADLLVANLVNENFVLSEKLDTKATEIKQLQKQIDSLNAQVKELKTQTSQQAENSEVIKDLYEYLCNVRVHKSYEDDSGLWFDISQGTHSGGSSDDYSIMDYKLGFVKGQAQVTEVIYAPVLKQRSTEELYSLQSKLPEYLFETLSFPLSSLNQFYNKIAKSLNKKREKKDETE
B2: Nnf1 (subunit of the purified MIND complex) (natural protein, S. cerevisiae, UniProt P47149 1-201, looked up)
chain: MVNSHGIRYIRLKQVFNRALDQSISKLQSWDKVSSCFPQYVNSKQGAINVANCQRQLTEFWTELCQREFKEIMEERNVEQKLNELDELILEAKERYTDRDQDEVNKGPAIDELSSKELVECHLYSQRMHAIHEIDERLAKVNEMNDQLAQELKDLETQVEVEKNEIGKMYDEYLGSHTDQPANVLLVQSLNDMVLELKENY
B3: Lrs4 full-length (natural protein, S. cerevisiae, UniProt Q04087 1-347, looked up)
chain: MTTLLQLLSNYYKAKLDSERIYNEYVQSQYEFASLDKLNNNKGDPKKVVDETLFLQRQIAQLNKQLQLSFQENEKLLSVQKNQKALYQSKLSSKDAFIDDLKLKLKVEQISVDKHNKERTPSTGRDEQQRNSKAAHTSKPTIHLLSPIVNRDKPNNQTNDRGGNDPDSPTSQRRSRGLRSLLSSGKNTIFDSISKNLDDEINENAHIRNDTTSSKIAGKSPSRLSALQKSPELRKERNNMILKEHILRSKDDQNITSSRKLDNIELSSIGDSTAMTSRSSTVNANDILGNEENDGITKLKRVNKLTSSPVKRDCSTNKKRKLTKQRIATLPNSDEELSNNLNVDEFV
B4: Mde4 1-231 (domain or fragment)
chain: MSTISTSTDSKLDNLGLSVTSRRNQILFYLSKALNLAHLLRSDSLQKSFLDALKQSATDSELLHKNLDEIKFLQNEKLNNEKLLEQEQNEANDYRLKVERLEHKISDYVQEINSLNSQLQIQKSNPEKHEDAVSQNRLRGSLDTVSSPSKTHKANKDEKATRLHLIIANLKKALKEKDAEVLNLQSHVSSKESELDRFKIKLETEESNWKVRLQVLESKLATQDRKLRMQK
B5: Mde4 full-length (natural protein)
chain: MSTISTSTDSKLDNLGLSVTSRRNQILFYLSKALNLAHLLRSDSLQKSFLDALKQSATDSELLHKNLDEIKFLQNEKLNNEKLLEQEQNEANDYRLKVERLEHKISDYVQEINSLNSQLQIQKSNPEKHEDAVSQNRLRGSLDTVSSPSKTHKANKDEKATRLHLIIANLKKALKEKDAEVLNLQSHVSSKESELDRFKIKLETEESNWKVRLQVLESKLATQDRKLRMQKKSTERKSLLVSPRVSSPKLFSPSKQAIMGTRQPNATSGSPLSVTPFLQKTSTSIGLSSSPPQSSPSAQSSQPFSRDKYPHSMTVSPSNARYLKKHLDDTIPSNVSDINHNDHLKIPQSPSSLSPSKIPIRKKRKLKDTVSNCEFTEEDSESSFLLETIQPTKSTLRRSISPLKKRNDEINELKKGFTMKK
B6: Lrs4 1-130 (domain or fragment, S. cerevisiae, UniProt Q04087 1-130, looked up)
chain: MTTLLQLLSNYYKAKLDSERIYNEYVQSQYEFASLDKLNNNKGDPKKVVDETLFLQRQIAQLNKQLQLSFQENEKLLSVQKNQKALYQSKLSSKDAFIDDLKLKLKVEQISVDKHNKERTPSTGRDEQQR
B7: Mtw1 (subunit of the purified MIND complex) (natural protein, S. cerevisiae, UniProt P39731 1-289, looked up)
chain: MSAPTMRSTSILTEHLGYPPISLVDDIINAVNEIMYKCTAAMEKYLLSKSKIGEEDYGEEIKSGVAKLESLLENSVDKNFDKLELYVLRNVLRIPEEYLDANVFRLENQKDLVIVDENELKKSEEKLREKVNDVELAFKKNEMLLKRVTKVKRLLFTIRGFKQKLNELLKCKDDVQLQKILESLKPIDDTMTLLTDSLRKLYVDSESTSSTEEVEALLQRLKTNGKQNNKDFRTRYIDIRTNNVLRKLGLLGDKEDEKQSAKPDARTQAGDIVSIDIEEPQLDLLDDVL
B8: Csm1 69-190 (domain or fragment, S. cerevisiae, UniProt P25651 69-190, looked up)
chain: ENSEVIKDLYEYLCNVRVHKSYEDDSGLWFDISQGTHSGGSSDDYSIMDYKLGFVKGQAQVTEVIYAPVLKQRSTEELYSLQSKLPEYLFETLSFPLSSLNQFYNKIAKSLNKKREKKDETE
B9: Lrs4 1-102 (domain or fragment, S. cerevisiae, UniProt Q04087 1-102, looked up)
chain: MTTLLQLLSNYYKAKLDSERIYNEYVQSQYEFASLDKLNNNKGDPKKVVDETLFLQRQIAQLNKQLQLSFQENEKLLSVQKNQKALYQSKLSSKDAFIDDLK
B10: Mde4 1-77 (domain or fragment)
chain: MSTISTSTDSKLDNLGLSVTSRRNQILFYLSKALNLAHLLRSDSLQKSFLDALKQSATDSELLHKNLDEIKFLQNEK
B11: Csm1 1-181 (domain or fragment, S. cerevisiae, UniProt P25651 1-181, looked up)
chain: MDPLTVYKNSVKQQIDSADLLVANLVNENFVLSEKLDTKATEIKQLQKQIDSLNAQVKELKTQTSQQAENSEVIKDLYEYLCNVRVHKSYEDDSGLWFDISQGTHSGGSSDDYSIMDYKLGFVKGQAQVTEVIYAPVLKQRSTEELYSLQSKLPEYLFETLSFPLSSLNQFYNKIAKSLNK
B12: Mde4 1-125 (domain or fragment)
chain: MSTISTSTDSKLDNLGLSVTSRRNQILFYLSKALNLAHLLRSDSLQKSFLDALKQSATDSELLHKNLDEIKFLQNEKLNNEKLLEQEQNEANDYRLKVERLEHKISDYVQEINSLNSQLQIQKSN

For series [1], the target named is S. pombe Pcs1 full-length (S. pombe) (UniProt O13684). Nature of the series: AUC.
S. pombe Pcs1 full-length (S. pombe), sequence (O13684 whole entry): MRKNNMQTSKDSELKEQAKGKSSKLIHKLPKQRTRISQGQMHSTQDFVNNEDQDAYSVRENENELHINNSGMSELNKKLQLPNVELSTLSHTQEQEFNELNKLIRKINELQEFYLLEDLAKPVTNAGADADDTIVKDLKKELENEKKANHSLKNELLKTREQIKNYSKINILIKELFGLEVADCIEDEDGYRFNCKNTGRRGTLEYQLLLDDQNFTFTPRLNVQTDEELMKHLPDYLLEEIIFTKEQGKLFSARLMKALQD
The target of a further series is Pcs1 85-222 (S. pombe) (UniProt O13684). Nature of the series: AUC.
The series “AUC” concerns the molecule itself. Nature of the series: AUC.
Series [2] deals with B7. In words: co-purification of a recombinant complex.
In series [3] the target is B1. In words: AUC.
In series [4] the target is S. pombe Pcs1 full-length (S. pombe) (UniProt O13684). Nature of the series: AUC. The source holds these as a separate data set.
Series [5] addresses T1, Dsn1 (subunit of the purified MIND …). In words: co-purification of a recombinant complex.
For the series “Csm1 1-181”, the target named is B11. Nature of the series: AUC.

The term stoichiometry N denotes a count of units in the complex or per binding partner. Take “S. pombe Pcs1 full-length (from UniProt O13684 1-261) (natural protein)”: the stoichiometry N in series [1] was 2.

“Pcs1 85-222 (from UniProt O13684 85-222) (domain or fragment)”: the stoichiometry N with Pcs1 85-222 (S. pombe) stood at 2.

As to B1, in “AUC”, the “stoichiometry N” value amounted to 2.

As for B2, the binding result in series [2] was “binds”.

With B3, the “stoichiometry N” value in series [3] was 4 copies of Csm1 in the complex and 2 copies of Lrs4 in the complex.

Consider B4, for which, in series [4], the stoichiometry N (copies of Mde4 in the complex) was 2 and the stoichiometry N (copies of Pcs1 in the complex) was 4.

In series [4], B5 had a stoichiometry N (copies of Mde4 in the complex) of 2 and a stoichiometry N (copies of Pcs1 in the complex) of 4.

As for B6, the “stoichiometry N” value in series [3] is 4 copies of Csm1 in the complex and 2 copies of Lrs4 in the complex.

As to B7, the binding result in series [5] is listed as “binds”.

Regarding B8, the “stoichiometry N” value in the series “AUC” came to 2.

Turning to B9, in series [3], the “stoichiometry N” value is 4 copies of Csm1 in the complex and 2 copies of Lrs4 in the complex.

As to B10, in series [4], the stoichiometry N (copies of Mde4 in the complex) amounted to 2 and the stoichiometry N (copies of Pcs1 in the complex) was determined as 4.

Regarding B11, the “stoichiometry N” value in the series “AUC” amounted to 2.

For TTLLQLLSNYYKAKLDSERIYNEYVQSQY (peptide, UniProt Q04087 2-30, looked up) [peptide containing Lrs4 residues 2-30], in the series with Csm1 1-181, the “stoichiometry N” value is 4 copies of Csm1 in the complex and 2 copies of Lrs4 in the complex.

Take B12: in series [4], the stoichiometry N (copies of Mde4 in the complex) is 2 and the stoichiometry N (copies of Pcs1 in the complex) worked out at 4.
